From the DeepSol protein solubility set

experiment: soluble on expression in E. coli; label from the status in PepcDB or PDB records

Sequence | soluble on expression in E. coli
MSLDNVIDEVVWVIGDEAILKSDVEEARLAALYEGRKFDGDPYCVIPEELAVQKLYMHQAVLDSIEVPEAEVIQRVDYQISNYIQALGSRERMEAEFNKTSTQIREAMRENARDGLIVQRMQQKLVGDIKVTPAEVRRYFKELPQDSIPYVPTQVEVQIITQQPKIPVAEIEDVKRRLREYTDRINKGESDFSTLALLYSEDRGSAIKGGETGFMGKGQMVPEYANVAFNLQDTKKISKIVESEYGFHIIQLIEKRGDRINTRHILLKPKVSDKELDEANARLDSIANDIRSDKFTFDQAASALSQDKDTRNNHGLMQNPQNQTAKFEMQDLPQEIAKVVDKMNIGEISKAFTMVNPKDGKEVCAIVKLKSRINGHKATITDDYQNLKEIVLDKRREEALQKWIVEKQKHTYVRINPAWQRCDFKYPGWIKKEGHHHHHH | soluble
MAHHHHHHMQDEAVRAALQSGVWREKKDPKSGKTYYVNVQTRVSVWNLAKELARLQQQQKFTEEMELRKQKKLRSLAEERQAQAKKWQEEEEALMQRMAELEREKARLESEITILQGPTEVEAASLQEEQSRLLDAKQSLELIVSEELRKRRESAAELQQLQARLEALRQERQEELGMFESLRKRLEQLRQEHAEALADLQREEAVEESLREELQREERQLEDALHEEVRLKELLKMREDEVDRMKAELKAVCQRKAELQQQHQRLLEEVAESAMGAAEDTLQEPPPSSSLLLSHLQREVANRKKSLRHLMQQQRLAKEAEWMEAESAELRRFTALAEREAQRLAQFSRELSDQVRAVTPLLEAVKHDVQQLEEEMEELR | soluble
MFAIAHNSILRDSLAGILQLSPERVFDEYRPPPFTGNIVVGVEDLRDANLRFAVRYFLANVEKSISLFIVKQEWSENDEKFFDDLVKTEYRRAHDLNQVAIDRVNKLPDNEWKSDRLEQLNEWRTIPAINYSLLTLNDNLKNQIDALAKVTPCTISDDEEQITNKPPVLHWTADPLEGEIQFIAQLNFPLSGPDDSSFREICRLLKPHFETSYEWTGGILLTSDPVRLHVQRFNDTQIELAARICVDELEGDEADRPIRFIWPYLAVSLKQALQVLGEHPHLQYSISFVPFGSIFFKSSEIEARVFDATVFCSTALKYDKVGFRVGEDVHHVDIAHIFPDGTYPSLSRLLSMNPPSPRFSRPESVNDSVSPSLMSEPPTPGGLVAPHNRGRRVSFGTIKLMSDGPTTPEIPILNGNSNDGSAKTVDAFIDKMLQQTMDQLAV | not soluble
MNNQLVISDYIFPIHQYGKMGTIHSVFERSFNLKVQDQLINVANFHNYLSSFGMFLPDQLFQEIFPYVQQGNKVKITENQLTFYSTVGVKTIQLTPAEVVSLNITHFKLEKDQLRLLRDRLLARNLERRIGLPLDERAKHIFKKMSQKQKVWTLSEWQEVTNYLIGRGKGLTPSGDDILVAYQTILFILADERAAALAATLSAANLSTTDVSKGYIASSAKGYVNSLLYQLLLDLENHRDNRVDENIDRIIQIGHSSGKDMSFGMLLALQSVELDEK | not soluble
GPGSMFHNSYQAGFLSILYSIGSKPLQIWDSQVRNGHVKRITDEDIQSSVLEIMGSNVSTCYIVCPANPKQTLGIKLPFLVMIIKNMKKYFSFEVTILDDKNMRRRFRASNYQSTTKVKPFICTMPMRLDEGWNQIQFNLSDFTRRAYGTNYVETLRVQVHANCRIRRLYFSDRLYAEEELPPEFKLFLPIAQQPPAAAAAEQRDIEAADVPQAASAAQ | soluble
MTTLPPPATELSADEARRLALRAQGFLGAPDRRAGVRGVLRHLGAVQLDTISVLARSHELIPYARLGAVGRRTVDDAYWTDTHAFEYWSHAACILPIEEWPHFAFRRRAYRNRPHWNHHLPEGDYDRVVKQLREEGPLTATDLGGAKRTSEWWDWSGTKVAVERALMYGEVVCVERRGWKRVYDLAERAVPAALLHDDLDDTECLRRLVRLAGQSLGVGTRADIADYHRLKAEQVDAVIADSGLVPVTVAGWGRPAWADPAALETVPRGRHRTTLLSPFDSLIWERARTERIFGFTHRLEAYVPRQKRVHGYFAMPVLAGGRLVGRVDPAREGRTLVAKQVTLDGPKAAPAVAQALVEAAGWVDCTNVRVERVETPDLREPLARELARLLDLEHHHHHH | not soluble
MEKREFPVSDRIFPEVSIPYGDKSTKAMQITCACCGAVAYFPHQTGVNRKPPIAATQHFQNKGWVVGGNPRKDFCPIHAAPAKRKGQKAMVDTVATIADKPREMSREDRRIINDKLDEVYAKDAYKSPWTDSAVAKDLGVPRDWVAQVRDQFFGPAGSNPLYDEFLKETKLVEGAFLACEEATARAEKAAADQRRAHGDLCKAMDSYRVLARKVEREISR | not soluble
KELIMCLSGSILRSATQQYSVGDYIEINGLRGRVVDINLLNTLMMQVGPNPLVGQLAGTTVSFPNSLLLSHPVRRDNILGDYVIHTVEIPVPIHLDSDEAVCRLKAVLEPLCAPYIPAIQRHLENVQAEKLFITPAARPRVTRVPYDDKAYRIIVRFASPVSKRLEIQQAVMDEFLRVQYRLLNHPAGSETL | not soluble
MRIPLVGKDSIESKDIGFTLIHEHLRVFSEAVRQQWPHLYNEDEEFRNAVNEVKRAMQFGVKTIVDPTVMGLGRDIRFMEKVVKATGINLVAGTGIYIYIDLPFYFLNRSIDEIADLFIHDIKEGIQGTLNKAGFVKIAADEPGITKDVEKVIRAAAIANKETKVPIITHSNAHNNTGLEQQRILTEEGVDPGKILIGHLGDTDNIDYIKKIADKGSFIGLDRYGLDLFLPVDKRNETTLRLIKDGYSDKIMISHDYCCTIDWGTAKPEYKPKLAPRWSITLIFEDTIPFLKRNGVNEEVIATIFKENPKKFFS | soluble
MSLACGEFSLIARYFDRVRSSRLDVETGIGDDCALLNIPEKQTLAISTDTLVAGNHFLPDIDPADLAYKALAVNLSDLAAMGADPAWLTLALTLPEVDEPWLEAFSDSLFALLNYYDMQLIGGDTTRGPLSMTLGIHGYIPAGRALKRSGAKPGDWIYVTGTPGDSAAGLAVLQNRLQVSEETDAHYLIQRHLRPTPRILHGQALRDIASAAIDLSDGLISDLGHIVKASGCGARVDVDALPKSDAMMRHVDDGQALRWALSGGEDYELCFTVPELNRGALDVAIGQLGVPFTCIGQMSADIEGLNFVRDGMPVTFDWKGYDHFATPEGGSHHHHHH | soluble
MSVSKKLFSTAVRGKSWWSHVEMGPPDAILGVTEAFKADSNPKKINLGVGAYRDDQGKPFVLPSVKEAERQVIAANLDKEYAGIVGLPEFTKLSAQLALGENSDVIKNKRIFTTQSISGTGALRIGSEFLSKYAKTKVIYQPTPTWGNHVPIFKFAGVDVKQYRYYDKSTCGFDETGALADIAQIPEGSTILLHACAHNPTGVDPSRDQWKKISDIVKKRNLFVFFDMAYQGFASGDVDNDAFAVRYFVEQGHNIVLSQSFAKNMGLYGERVGAFSVVTSDADEAARVASQVKILIRPLYSNPPVHGARIASRILADPALNKQWLGDVKLMADRIITMRTTLKDLLAKEGSTRNWEHITNQIGMFCFTGINPQQVEKLIKEHSVYLTKDGRISVAGISSNNVAYLAHALHQVTK | not soluble
MERIAMNPLMQQAIQFANDHETAWDRSVRGNFGVHLDDPPPWNRLLGPVHDRGPVSGVVVVDGQTLASWGEPERADLTFSVAKLYLSILAGVAHDRGLLPDVDEPVGRRVPGIGFDAGRNARITWRHLLQQTSEWEGERFGVPDQADRYRAVAFGIPPDGRKGDARPLQEPGTYWEYNDVRINQLSYALLHLFRRPLPEVFREAVTRPLGASEDWQWVGYDNAWVDIDGVRMPSVPGGTHWGGGMSISARDQALIGRMLLDEGRAADGRQVLSPAWIQAMRTPCDIAPYYGYLIWLNHERKVFPSVPASSFFGIGAGSSFTWVEPERRMVVIVRWLDAAYADALFGRILAAVDAHRAGLEHHHHHH | not soluble
YRATKLWNEVTTSFRAGMPLRKHRQHFKKYGNCFTAGEAVDWLYDLLRNNSNFGPEVTRQQTIQLLRKFLKNHVIEDIKGRWGSENVDDNNQLFRFPA | soluble
